According to patent publication US20250230255A1 (BIOTHEUS, published 2025):
Where two headings read alike, the source gives them in different places. One block for each binder: values may come before it.

Legend:
[1] = target: PD-1 (of the Promega PD-1/PD-L1 blockade bioassay) (UniProt Q15116 25-288, limits assumed); test: cell-based or functional assay
human PD-1 on cells = target: T1, human PD-1 on cells (human, UniProt Q15116 25-288); test: flow cytometry on CHOS cells overexpressing human PD1, median fluorescence intensity PE-A
T1 construct: also called CHO-hPD1 cell
T1 sequence (Q15116 25-288 limits assumed): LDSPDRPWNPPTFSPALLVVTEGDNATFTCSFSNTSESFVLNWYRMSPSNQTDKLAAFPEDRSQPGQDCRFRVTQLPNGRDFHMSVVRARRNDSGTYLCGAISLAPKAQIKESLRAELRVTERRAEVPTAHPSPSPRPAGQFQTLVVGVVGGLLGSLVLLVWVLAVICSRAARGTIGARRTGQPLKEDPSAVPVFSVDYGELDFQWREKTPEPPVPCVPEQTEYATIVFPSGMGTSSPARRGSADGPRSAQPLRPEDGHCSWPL

cynomolgus PD-1 on cells = target: T2, cynomolgus PD-1 on cells (cynomolgus, UniProt Q15116 25-288 (human entry)); test: flow cytometry on CHOS cells overexpressing cynomolgus PD1, median fluorescence intensity PE-A
T2 construct: also called CHO-cynoPD1 cell
T2 chain: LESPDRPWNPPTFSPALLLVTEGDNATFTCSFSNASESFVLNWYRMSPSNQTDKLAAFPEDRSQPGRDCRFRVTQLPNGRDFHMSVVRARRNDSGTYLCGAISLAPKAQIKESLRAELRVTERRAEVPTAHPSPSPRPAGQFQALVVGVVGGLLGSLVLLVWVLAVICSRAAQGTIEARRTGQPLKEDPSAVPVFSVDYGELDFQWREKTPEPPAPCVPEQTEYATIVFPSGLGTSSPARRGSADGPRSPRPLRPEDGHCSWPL

[2] = target: T3, human CD39 (recombinant protein in solution) (human, UniProt P49961 38-478, limits assumed); test: BLI (ForteBio), method of Example 3, human CD39 in solution
T3 construct: also called soluble human CD39; soluble CD39
T3 sequence: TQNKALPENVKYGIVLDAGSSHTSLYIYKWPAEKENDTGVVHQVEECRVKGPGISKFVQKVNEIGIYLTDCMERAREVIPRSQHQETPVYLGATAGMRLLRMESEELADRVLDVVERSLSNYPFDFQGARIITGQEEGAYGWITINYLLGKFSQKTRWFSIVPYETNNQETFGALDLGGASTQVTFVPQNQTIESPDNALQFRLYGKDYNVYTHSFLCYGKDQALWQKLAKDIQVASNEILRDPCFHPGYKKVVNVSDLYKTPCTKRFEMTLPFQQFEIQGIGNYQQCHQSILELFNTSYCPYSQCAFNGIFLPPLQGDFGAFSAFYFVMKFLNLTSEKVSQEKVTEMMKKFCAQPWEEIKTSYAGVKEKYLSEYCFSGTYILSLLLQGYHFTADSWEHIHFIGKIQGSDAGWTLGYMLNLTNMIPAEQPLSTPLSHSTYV
Protocol: (§1) ForteBio affinity test was conducted according to the existing methods (Estep, P et al., High throughput solution based measurement of antibody-antigen affinity and affinity binding. MAbs, 2013.5 (2): p. 270-8). In short, the sensor is balanced offline in the analysis buffer for 30 min, and then tested online for 60 s to establish baseline. After that, the AHQ sensor is online loaded with the above-obtained purified antibody, and put into 100 nM human CD39 (SEQ ID NO: 28) for 5 min, and then transferred the sensor to PBS for dissociation for 5 min. A 1:1 binding model is used for the dynamic analysis.

human CD39 on cells [3] = target: T4, human CD39 on cells (human, UniProt P49961 1-510); test: cell-based or functional assay
T4 sequence: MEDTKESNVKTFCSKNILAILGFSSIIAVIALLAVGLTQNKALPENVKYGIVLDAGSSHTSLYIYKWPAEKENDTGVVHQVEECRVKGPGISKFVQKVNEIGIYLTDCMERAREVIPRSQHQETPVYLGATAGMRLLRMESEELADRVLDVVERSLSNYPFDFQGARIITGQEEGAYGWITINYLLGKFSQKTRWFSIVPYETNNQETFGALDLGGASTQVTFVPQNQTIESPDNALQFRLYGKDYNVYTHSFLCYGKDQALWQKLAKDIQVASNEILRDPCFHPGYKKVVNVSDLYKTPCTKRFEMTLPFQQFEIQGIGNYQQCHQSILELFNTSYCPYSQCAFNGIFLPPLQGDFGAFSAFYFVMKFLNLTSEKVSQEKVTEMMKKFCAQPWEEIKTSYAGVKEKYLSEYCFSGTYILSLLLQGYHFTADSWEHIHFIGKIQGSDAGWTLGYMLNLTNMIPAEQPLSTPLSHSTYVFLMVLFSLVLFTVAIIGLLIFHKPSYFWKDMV

human CD39 on cells [4] = target: T4, human CD39 on cells; test: cell-based or functional assay; remark: listed apart in the source
[5] = target: T3, human CD39 (recombinant protein in …); test: cell-based or functional assay
human CD39 on cells [6] = target: T4, human CD39 on cells; test: cell-based or functional assay; remark: listed apart in the source
human CD39 on cells [7] = target: T4, human CD39 on cells; test: cell-based or functional assay; remark: listed apart in the source
[8] = target: T3, human CD39 (recombinant protein in …); test: cell-based or functional assay; remark: listed apart in the source
human CD39 on cells [9] = target: T4, human CD39 on cells; test: flow cytometry on CHO-hCD39 cells, MFI titration
cynomolgus CD39 on cells = target: T5, cynomolgus CD39 on cells (cynomolgus, UniProt P49961 6-510 (human entry)); test: flow cytometry on CHO-cyCD39 cells, MFI titration
T5 construct: also called cyCD39; CHO-cyCD39 cells
T5 chain: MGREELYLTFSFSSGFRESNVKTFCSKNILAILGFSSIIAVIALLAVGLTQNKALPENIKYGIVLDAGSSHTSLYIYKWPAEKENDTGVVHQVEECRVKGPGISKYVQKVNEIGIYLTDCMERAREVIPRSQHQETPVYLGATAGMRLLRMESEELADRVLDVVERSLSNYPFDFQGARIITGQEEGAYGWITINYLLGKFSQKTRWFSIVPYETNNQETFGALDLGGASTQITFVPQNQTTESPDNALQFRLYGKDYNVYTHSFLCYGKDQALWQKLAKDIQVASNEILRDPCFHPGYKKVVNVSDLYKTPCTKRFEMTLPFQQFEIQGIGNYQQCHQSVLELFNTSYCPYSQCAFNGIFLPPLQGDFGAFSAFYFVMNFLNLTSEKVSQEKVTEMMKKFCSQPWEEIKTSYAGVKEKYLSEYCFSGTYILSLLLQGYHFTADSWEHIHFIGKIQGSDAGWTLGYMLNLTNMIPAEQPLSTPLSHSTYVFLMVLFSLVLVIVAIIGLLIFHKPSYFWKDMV

[10] = target: T3, human CD39 (recombinant protein in …); test: BLI (ForteBio), method of Example 3, human CD39 in solution; remark: listed apart in the source
Protocol: as §1
The humanized sequences are subjected to the humanized antibody vector construction, expression and purification according to the method described in Example 2. […] The purified humanized antibodies were subjected to the affinity test at protein level according to the method described in Example 3.

[11] = target: T3, human CD39 (recombinant protein in …); test: BLI (ForteBio), antibody loaded on AHQ sensor, 100 nM human CD39 in solution, 1:1 model
Protocol: as §1

Chain of PD-1 (of the Promega PD-1/PD-L1 blockade bioassay) (Q15116 25-288 limits assumed): as the sequence (Q15116 25-288 limits assumed) above

B2: anti-PD1×CD39 antibody (bispecific antibody, human IgG1, kappa)
heavy: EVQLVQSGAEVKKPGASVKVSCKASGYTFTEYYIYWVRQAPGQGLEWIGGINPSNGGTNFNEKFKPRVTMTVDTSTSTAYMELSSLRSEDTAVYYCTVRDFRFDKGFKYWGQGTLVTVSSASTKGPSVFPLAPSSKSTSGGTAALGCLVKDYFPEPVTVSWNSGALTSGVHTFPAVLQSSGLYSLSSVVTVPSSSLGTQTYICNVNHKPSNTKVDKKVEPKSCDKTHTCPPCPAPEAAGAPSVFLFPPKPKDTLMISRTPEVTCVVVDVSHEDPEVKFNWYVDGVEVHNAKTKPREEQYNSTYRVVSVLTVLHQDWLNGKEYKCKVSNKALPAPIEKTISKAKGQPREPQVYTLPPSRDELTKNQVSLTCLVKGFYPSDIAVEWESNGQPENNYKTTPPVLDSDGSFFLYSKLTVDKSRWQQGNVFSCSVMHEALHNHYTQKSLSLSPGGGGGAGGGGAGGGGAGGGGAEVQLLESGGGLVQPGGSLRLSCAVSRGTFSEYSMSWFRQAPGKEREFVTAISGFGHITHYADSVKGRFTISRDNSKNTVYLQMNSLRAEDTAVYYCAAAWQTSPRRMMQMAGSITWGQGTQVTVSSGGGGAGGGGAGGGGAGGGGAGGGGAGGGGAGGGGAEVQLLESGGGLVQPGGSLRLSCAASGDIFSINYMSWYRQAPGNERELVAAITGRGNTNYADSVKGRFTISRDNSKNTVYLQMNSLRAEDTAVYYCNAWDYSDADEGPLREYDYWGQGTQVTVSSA
light: DIVLTQSPATLSLSPGERATLSCRASKSVSTSGLNYVHWYQRKPGQAPRLLIYLGSYLDSGVPARFSGSGSGTDFTLTISSLEPEDFAVYYCQQSWELPLTFGGGTKVEIKRTVAAPSVFIFPPSDEQLKSGTASVVCLLNNFYPREAKVQWKVDNALQSGNSQESVTEQDSKDSTYSLSSTLTLSKADYEKHKVYACEVTHQGLSSPVTKSFNRGEC
notes: also called Anti-PD1xCD39 antibody
EC50 (read off the curve) [1]: ~0.3 nM
EC50 (read off the curve) (human PD-1 on cells): ~10 nM
EC50 (read off the curve) (cynomolgus PD-1 on cells): ~20 nM

B4: I394 BMK (antibody, human IgG1, kappa, V domains shown)
VH: EVQLQQSGPELVKPGASVKMSCKASGYTFTDYNMHWVKQSHGRTLEWIGYIVPLNGGSTFNQKFKGRATLTVNTSSRTAYMELRSLTSEDSAAYYCARGGTRFAYWGQGTLVTVSA
VL: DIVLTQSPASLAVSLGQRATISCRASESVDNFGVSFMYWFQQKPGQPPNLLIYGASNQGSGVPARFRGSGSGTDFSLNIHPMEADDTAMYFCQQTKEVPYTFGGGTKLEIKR
notes: also called control antibody
EC50 of blocking CD39 enzyme activity in human CD39 overexpression cells (ATP, CellTiter-Glo) (human CD39 on cells [3]): 10.1 nM
EC50 of blocking CD39 enzyme activity in PBMC system (human CD39 on cells [4]): 10.1 nM
EC50 of blocking enzyme activity of soluble CD39 [5]: 3.09 nM
EC50 of blocking CD39 enzyme activity of human CD39 overexpression cells (human CD39 on cells [6]): 1.99 nM
EC50 of blocking CD39 enzyme activity in PBMC system (human CD39 on cells [7]): 0.338 nM
EC50 of blocking enzyme activity of soluble human CD39 [8]: 8.89 nM
EC50 (human CD39 on cells [9]): 4.76 nM
EC50 (cynomolgus CD39 on cells): 5.53 nM
Kd [10]: 1.5 nM
koff [10]: 0.000371 s⁻¹
kon [10]: 245000 M⁻¹ s⁻¹
Kd [11]: 0.855 nM
koff [11]: 0.0002 s⁻¹
kon [11]: 285000 M⁻¹ s⁻¹

Other lines, results leading:

EC50 (read off the curve) [1]: ~0.2 nM
EC50 (read off the curve) (human PD-1 on cells): ~10 nM
EC50 (read off the curve) (cynomolgus PD-1 on cells): ~10 nM
B1: anti-PD1 antibody ADI-54872 (antibody, V domains shown)
VH: EVQLVQSGAEVKKPGASVKVSCKASGYTFTEYYIYWVRQAPGQGLEWIGGINPSNGGTNFNEKFKPRVTMTVDTSTSTAYMELSSLRSEDTAVYYCTVRDFRFDKGFKYWGQGTLVTVSS
VL: DIVLTQSPATLSLSPGERATLSCRASKSVSTSGLNYVHWYQRKPGQAPRLLIYLGSYLDSGVPARFSGSGSGTDFTLTISSLEPEDFAVYYCQQSWELPLTFGGGTKVEIK
notes: also called anti-PD-1 monoclonal antibody molecule

Kd [2]: 0.351 nM
koff [2]: 0.000106 s⁻¹
kon [2]: 303000 M⁻¹ s⁻¹
B3: Bi307/308 (bispecific antibody, human IgG1, kappa, L234A L235A)
heavy: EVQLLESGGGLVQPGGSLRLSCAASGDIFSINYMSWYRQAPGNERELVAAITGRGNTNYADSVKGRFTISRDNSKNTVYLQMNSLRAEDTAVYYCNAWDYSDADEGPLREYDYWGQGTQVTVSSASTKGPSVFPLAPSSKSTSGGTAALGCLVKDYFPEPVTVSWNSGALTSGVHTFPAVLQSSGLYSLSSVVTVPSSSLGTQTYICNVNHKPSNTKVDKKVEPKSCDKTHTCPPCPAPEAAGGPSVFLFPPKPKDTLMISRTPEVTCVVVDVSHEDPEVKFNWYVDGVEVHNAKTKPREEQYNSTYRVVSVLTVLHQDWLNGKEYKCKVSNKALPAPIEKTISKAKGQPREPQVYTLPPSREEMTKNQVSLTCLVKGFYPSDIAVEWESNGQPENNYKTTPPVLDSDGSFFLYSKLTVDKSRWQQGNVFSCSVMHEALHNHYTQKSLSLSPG
light: EVQLLESGGGLVQPGGSLRLSCAVSRGTFSEYSMSWFRQAPGKEREFVTAISGFGHITHYADSVKGRFTISRDNSKNTVYLQMNSLRAEDTAVYYCAAAWQTSPRRMMQMAGSITWGQGTQVTVSSRTVAAPSVFIFPPSDEQLKSGTASVVCLLNNFYPREAKVQWKVDNALQSGNSQESVTEQDSKDSTYSLSSTLTLSKADYEKHKVYACEVTHQGLSSPVTKSFNRGEC
notes: also called bi-epitopic anti-CD39 antibody resembling IgG structure
